Results reported in the supplement of paper PMC12042874.
± gives the uncertainty stated by the source.

Assay: amyloid nucleation score (Sup35N fusion, yeast selection) (log enrichment); library NNK3; higher = more nucleation; inactive = no reads after selection
Method in brief: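 Plasmid inserts were Illumina-sequenced at input and output from psi-negative yeast expressing Sup35N fused to peptides of 20 random codons. The yeast were induced with 100 μM copper sulfate for 24 hours and grown 7 days at 30°C on medium lacking adenine and uracil, and sequences with under 100 input reads were excluded. Nucleation score is the DiMSum log enrichment of output over input reads, centred on the mode score of non-aggregating sequences.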

Amyloid nucleation score, 1.25 ± 0.14:
TYAIGLHMLGSMGKIPDWEQ

Amyloid nucleation score, inactive:
IWPWSFALIMS
GESYDCLLLHSRVWLSVVMG
RTCAYRMESVHVVRVSAGIM
ARSNRCSM
CRGYADFT
NSIIGTVDGKSGSNRVRSP
YGREMRSSMMNGGYLIIMKW
LKIGTFCSNPGSLIVVYLTV
AKCFFPGVNLMVGSQLFWLR
NMGALIRSRQVEVSHKRVSG
NDIMKTCFFNTYAYHLSVVM
NYVLGGCNLGSSGCRVRLSC
IDVKMGSYFVYHDGLFIFRV
TMSLTDYLCGCSWFWCKTSR
FFVKEFLVLDICGMTLPFDI
PGVDERT
RCFSRRSCCGSVVWTVRVRH
PVLGPAEGITIGRGV
SKSHLTIVSSYDHFHYMVRV
VRWSWSMFVVYNSVES
YLRMLVDELKITHHH
EAPFDHPLYLRDLY
WFWRVNIMKTIGLSHSRHEG
WFSNVGVVEVASSRCREWGI
PLSNGELFRNATLNDGIWGE
SLISSALDIISDRYGLHVNN
CSNVRPLD
QLGFWKELSSSHS
HNGARG
QRYVLSCRALTGDTCWRKSG
VLLLTMEFGASDVFCWVVKY
IFYVLSTMNDSIVV
AGGLSGDNWRRIDG
ATCWTLGNDVRFGMRAFTFV
TCHIRKWSEGWLKYMDCRSP
WNRAVCIMSNIWIMDLPVLK
NCDCSIAEPESILRFESPRE
VYGWMVVHVGRLWTWLHRLL
LLGLFRLFKPQAFKGSPAAS
RMFGNIDCFCIIIMKVSWSG
MSELWWAPSFKYQLFSHFIK
LYEDYISSSMSMLLRLLSSY
GYLQGIYYGFTSCRKTSNQD
FLKLSLDIMFPYQIVYMPTT
YYGRNEVLYQSDNVRYSSSG
NPCHCQRRINFVL
WVEWIWSWKNDVPLVCRASA
LFAYRWGIYFRLKVEYFVDS
PLMRTGEDISPERQRDGRGK
KHILFE
VHLSRWYVN
ICTCKWRLTLEQTSFVDGLT
AGSILYGHYLDACGRHSRVI
TLFLFIMVMGYSLANLVDSS
SITDESASPPSRWKLGRFR
HICIQDCVD
MGYLMRALGHCSY
LLVPILCPFKV
LRGAVVVSEKTRVTTQCIAR
YSWRGIFNGWFFCFMARVLG
ISRSYCCVYT
LSAATYPL
YDCVGDGWRPWLRPEDRSHV
SGVYHRICSISLYQVSMR
EHSNNFTHNYVFWIGIGLAC
ALPREPESVLG
TDTIKSVVYVSVLDGDYNSG
IYALDNHGTCGRGHAFYNMV
RKDVSCSPLLNCETVSVQ
VICFAARALVYC
LEITALLTVRMHVDS
DMIYMLVAFARFIYLDTCIR
SAECSVPEYVHRHKVIWHGL
PVDIVHVHAIRIMFMEGSDV
HLSRCYCYNDVSLARNFNDR
YKETDLQIFRAIVVSSSYWD
NVMSLSMWSSLSLWYSGLS
QLSFMEGANLRYCDFKPMIV
ERRIPRSNLKRRSKLSKFPA
ISGHGMKAVMSVDHSLY
HEELQKIMIFSCMCYLQVLT
LFRPSL
NGTLSYCPDKELSTLVFLHY
LDHAKRHIIVPEYLSLAKKQ
VPGYAAMSPLLCYRGIPVQG
RSPYNFCKALRMGWVTNKIS
MDLITFGKKMREAQARILLV
NSDLIRVNRSVMYAKETCEV
PVGVMTVSDLLFDYFAFRSF
PNGALK
YVGVVVYLLPMLGALYGFGD
MKRCTVFEPLPKRRLVMYLE
SSLHARRYGLHLSLLSPARA
LYPFSGESQA
FVSFGLGTMFDLRA
VYSLE
MGDSVFRCLCNTYALLFPPV
SWRKCPNLPSCKTIPNAWVL
CSRSKNNTFRHSLWFHRYYA
VLVMISSWNYLMCIFFCINV
LPSICVSPI
FNDKSMFDASKAMPFSLIAG
TRWLCLDKLHLFLLCGKIAI
EVYKYKSEERMVAST
FKIKKVN
RILVGLNCS
YKYGFAFCIIASAVSR
MFMYCPCSLEDICLRFPTPV
SGFILSCMLNPGTFTNDLMG
VILVFIFRYLHTPSGSSGAR
HDLNWNSMVRCRVNVSSVIV
SSCRETTLEFAMGGTTVHLQ
KDVYCRGVGG
HNLLEETLTWCNIGRGWDD
SESMDGNFQKCLSAVCALIE
SYLSHNFNGECCTSLLMDNL
GSAECGCFASVYMNSMIKTV
NLRHYTVDMLCSNYEYVIVY
FILMLVTKLRAHLRGEIRGE
PNEMGSSVMENNWTIHNFGM
QYVSSTFHV
NLCQSAGRFCWG
VLDRVKNRVFYLLVECQKLF
RYRGMGQNMT
CDFTRESYTDNTAASIPMLM

Amyloid nucleation score, 1.43 ± 0.069:
CFVAILNVIFGWSY

Amyloid nucleation score, 0.098 ± 0.23:
VNKVDGLETMQYIFTCGSWM

Amyloid nucleation score, 2.24 ± 0.06:
VSFLFDIW

Amyloid nucleation score, -0.267 ± 0.68:
GYTNKLKWGHRITINAFVYR

Amyloid nucleation score, 0.928 ± 0.18:
NARHFIRYATFCCQYASRCG

Amyloid nucleation score, 0.98 ± 0.2:
EPNVFSSLGILNINVVALWL

Amyloid nucleation score, -0.187 ± 0.66:
TSRHVLR

Amyloid nucleation score, -0.469 ± 1.1:
MFRLVSGTEGLRLREVWC

Amyloid nucleation score, 0.622 ± 0.18:
YIALLLLSRWDQTCKGARTG

Amyloid nucleation score, 0.836 ± 0.27:
MRGRFLASPGWFTFRIFFVF

Amyloid nucleation score, 2.72 ± 0.054:
FTDLTVNPNYNFYMCSLNRL

Amyloid nucleation score, 1.41 ± 0.087:
CVQLKSTSHVYYFRDQVGLD

Amyloid nucleation score, -0.742 ± 1.1:
LFMYMMPQGPSVTANMELVI

Amyloid nucleation score, 0.953 ± 0.11:
TCLQVSTFFVQASKSLYLPI

Amyloid nucleation score, 2.63 ± 0.08:
NLTINVVAVQFLFMTTGY

Amyloid nucleation score, 0.165 ± 0.75:
VSITVFPFTLLITYLI

Amyloid nucleation score, 1.14 ± 0.18:
PHNGHKNSWCTVPGSSCRSV

Amyloid nucleation score, 1.81 ± 0.072:
NTRRNYNGRYLVLCIRLQLR

Amyloid nucleation score, 2.07 ± 0.074:
QYELIGSKYVQRFSFQANFS

Amyloid nucleation score, 1.41 ± 0.093:
WLWKVSFK

Amyloid nucleation score, 1.73 ± 0.091:
GVMMVMFARL

Amyloid nucleation score, -0.227 ± 0.75:
VYYSWVICSMERTKSWSMSS

Amyloid nucleation score, 0.64 ± 0.26:
EINFMKRASRVRLKQYNQ

Amyloid nucleation score, 0.235 ± 0.19:
AIEKGHK

Amyloid nucleation score, 2.69 ± 0.063:
VSNNVQVNQVMYFNTVICIV

Amyloid nucleation score, 0.184 ± 0.32:
SCVVFGSQTLRVVFFDRVSS

Amyloid nucleation score, 0.654 ± 0.11:
SKHIIFSFIGDLI

Amyloid nucleation score, 0.9 ± 0.12:
FISWMLAR

Amyloid nucleation score, 1.17 ± 0.16:
LFIWCTFFVIMFCSTTRVSI

Amyloid nucleation score, 1.85 ± 0.084:
VNISVRQALHANYVGTCFVC

Amyloid nucleation score, -0.025 ± 0.88:
APRGVSTDLDAVHRWYYSGR
